From PMC6340165, “A GntR Family Transcription Factor in Streptococcus mutans Regulates Biofilm Formation and Expression of Multiple Sugar Transporter Genes”

B1: stsR p3 (dsDNA)
DNA 1: CCACTTGACAATATTTTACTATAATTGTATTATATATATAACAC
DNA 2: GTGTTATATATATAATACAATTATAGTAAAATATTGTCAAGTGG
B2: stsR p3mut (dsDNA)
DNA 1: CCACTTGACAATATTTTACTCCACCTGTCCTCCATATATAACAC
DNA 2: GTGTTATATATGGAGGACAGGTGGAGTAAAATATTGTCAAGTGG

Legend:
[1] = target: T1, StsR (GntR family regulator) (Streptococcus mutans UA159) (UniProt Q8DTX4); assay: DNase I footprinting; conditions: 50 mM Tris/HCl, 10 mM NaCl, 0.5 M Mg acetate (so in the source), 0.1 mM EDTA, 5% glycerol, 30 min, 10 uL; 4% native PAGE in 0.5x TBS; pH and binding temperature not …
T1 sequence: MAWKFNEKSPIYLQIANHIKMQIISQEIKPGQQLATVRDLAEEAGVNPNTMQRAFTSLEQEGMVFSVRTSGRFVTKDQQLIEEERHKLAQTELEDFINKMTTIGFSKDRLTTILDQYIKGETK

[2] = target: T1, StsR (GntR family regulator) (Streptococcus mutans UA159); assay: EMSA; conditions: 50 mM Tris/HCl, 10 mM NaCl, 0.5 M Mg acetate (so in the source), 0.1 mM EDTA, 5% glycerol, 30 min, 10 uL; 4% native PAGE in 0.5x TBS; pH and binding temperature not …
[3] = target: StsR (GntR family regulator) (Streptococcus mutans UA159, UniProt Q8DTX4 1-123); assay: EMSA; 10-40 pmol StsR; 50 mM Tris/HCl, 10 mM NaCl, 0.5 M Mg acetate (so in the source), 0.1 mM EDTA, 5% glycerol, 30 min, 10 uL; 4% native PAGE in 0.5x TBS; pH and binding temperature not stated (DNase I digestion at 28 C); conditions: protein: recombinant; tags: His6 (pET28a); chain copies: 2; label: FITC; annealed with reverse complement

| Molecule | binding [2] | other results |
| --- | --- | --- |
| CTTCTGTCTCCTTAAGATCTACTTACTTTTATTATACTACAAATCCTTAAAATCCTCTTACTCTTTCATTTAATTCTACTAAATCTCATCAGTCTAAATTTACCACTTGACAATATTTTACTATAATTGTATTATATATATAACACAATTATACACTGCACTTTAGAAAGGAGAAAAAATGGCT (double strand) [stsR p2 FITC] |  | binding [1]: binds |
| CTTATAAAGTAATTTAATATCTTGATGAAATTTTAAAAAAACTTGACATTTTTCGCAAACGATTGCATAATATTATTGTAACAAAAATTACAAAGAAATTTCAGGAGGAAATCGCT (double strand) [maltose ABC transporter promoter] | binds |  |
| CTTCTGTCTCCTTAAGATCTACTTACTTTTATTATACTACAAATCCTTAAAATCCTCTTACTCTTTCATTTAATTCTACTAAATCTCATCAGTCTAAATTTACCACTTGACAATATTTTACTATAATTGTATTATATATATAACACAATTATACACTGCACTTTAGAAAGGAGAAAAAATGGCT (double strand) [stsR p2] | binds |  |
| AAGTGTCTCCTTCTACTTTTTAATAAAATAGTATTGTTTACTCAAATAATCACCTTGCGGCATATCAATGGTCAATCCCGCATACATTAACTCCGCA (double strand) [multiple sugar-binding ABC transporter promoter] | binds |  |
| CAAATTTTGGCAAAACTTTTGTGCCAAAATTTGAGTTTTATTAGAAAATGAAAAATGTTACAGTAGTTTTAGAATAAAAAGGAGGGGATTTCTGATGGAACGAAAATCTTCATTGAAGGTTCGGGTACA (double strand) [mannitol-specific PTS promoter] | binds |  |
| CAGGGATATGAAAATGACAAATGACACTGCAAAAGCGTTTTCAAAAAATGTAAAATAAAAATGAAATAAAAAAGAAAGTAGGGTGTATTC (double strand) [mannose-specific PTS promoter] | binds |  |
| B1 |  | binding result [3]: binds |
| B2 |  | binding result [3]: no binding |
